In US20140370037A1 (published 2014):
Numbering of substitutions follows the chain as printed.

T1: human DLL3 antigen (human, UniProt Q9NYJ7 27-492, limits assumed)
T1 construct: also called immobilized human DLL3; recombinant human DLL3
T1 sequence (looked up): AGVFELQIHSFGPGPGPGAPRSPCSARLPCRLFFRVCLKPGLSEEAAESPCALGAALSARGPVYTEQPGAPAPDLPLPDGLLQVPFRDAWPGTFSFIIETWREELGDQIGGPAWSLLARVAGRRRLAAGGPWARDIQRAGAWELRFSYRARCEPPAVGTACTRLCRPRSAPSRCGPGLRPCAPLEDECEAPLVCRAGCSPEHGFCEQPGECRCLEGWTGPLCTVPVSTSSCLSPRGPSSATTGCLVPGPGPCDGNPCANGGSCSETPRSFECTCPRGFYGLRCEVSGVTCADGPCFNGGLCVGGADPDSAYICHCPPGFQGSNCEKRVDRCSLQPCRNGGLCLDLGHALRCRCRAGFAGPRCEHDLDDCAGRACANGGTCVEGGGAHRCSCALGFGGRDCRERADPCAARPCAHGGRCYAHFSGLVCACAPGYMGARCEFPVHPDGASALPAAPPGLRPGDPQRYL

B1: SC16.18 (antibody, V domains shown)
VH: EVKLEESGGGLVQPGESMKLSCAASGFTFSDAWMDWVRQSPEKGLEWVAEIRNKANNHATYYAESVKGKFTISRDDSKSRVYLQMNNLRAADTGIYYCTAYSNFAYWGQGTLVTVST
VL: DIQMTQTTSSLSASLGDRVTISCRASQNIINYLNWYQQKPDGTVKLLIYYTSRLHSGVPSRFSGSGSGTDYSLTISNLEPEDIATYYCQQYSERPYTFGGGTKLEIKR
notes: murine mAb
B2: SC16.41 (antibody, V domains shown)
VH: B1 VH with P14F, E16G, A63P, K69R, A91E, A100G, N103S, T117A
VL: B1 VL with N28D, I29V, G68R
notes: murine mAb
B3: SC16.49 (antibody, V domains shown)
VH: QVQLQQSGPELVKPGTLVKISCKASGYTFTSYDINWVKQRPGQGLEWIGWIYPGDGNTKYSEKFKGKATLTADKSSSTAYMQLTSLTSENSAVYFCARDYDYPFAYWGQGTLVTVSA
VL: DIKMTQSPSSMYASLGERVTITCKASQDINSYLSWFQQKPGKSPKTLIYRANRLVDGVPSRFSGSGSGQDYSLTITSLEYEDMGIYYCLQYDEFPLTFGAGTKLELK
notes: murine mAb
B4: SC16.22 (antibody, V domains shown)
VH: QVQLQQPGAELVKPGASVKLSCKASGYTFTTYWMHWVKQRPGQGLEWIGEIDPSDSYTYYNQKFKGKATLTVDKSSSTAYMQLSSLTSEDSAVYYCARGDYGNPYAMDYWGQGSSVTVSS
VL: DIQMTQTTSSLSASLGDRVTISCRASQDIKNYLNWYQQKPDGTVKPLIYYTSRVHSGVPSRFSGSGSGTDYSLTISNLEQEDIATYFCQQGYTLPFTFGSGTKLE
notes: murine mAb
B5: SC16.5 (antibody, V domains shown)
VH: QVTLKESGPGILQPSQTLSLTCSFSGFSLSTSGMGVGWIRQPSGEGLEWLADIWWDDNKYYNPSLKSRLTISKDTSSNQVFLKITSVDTADTATYYCARRVNYVYDPYYAMDYWGQGTSVTVSS
VL: QIVLTQSPAIMSASPGEKVTMTCSASSSVSYMHWYQQKSGTSPKRWIYDTSKLASGVPARFSGSGSGTSYSLTISSMEAEDAATYYCQQWTRNPLTFGAGTKLELK
notes: murine mAb
B6: SC16.25 (antibody, V domains shown)
VH: B5 VH with A51T, K83N, V104Y
VL: B5 VL with T50S, T91S, R92S
notes: murine mAb
B7: SC16.21 (antibody, V domains shown)
VH: QVQLQQSGPELVKPGASVKISCKASGYAFSSSWMNWVKQRPGKGLEWIGRIYPGDGDTNYNGKFKGKATLTADKSSSTAYMQLSSLTSEDSAVYFCAMGIYNYDGSRYYSMDYWGQGTSVTVSS
VL: DIVMTQSPSSLAMSVGQKVTMSCKSSQSLLNSSNQKNYLAWYQQEPGQSPKLLVSFASTRESGVPDRFTGSGSGTDFTLTISGVQAEDLAVYYCQQHYSIPLTFGAGTKLELK
notes: murine mAb
B8: SC16.4 (antibody, V domains shown)
VH: QIQLVQSGPELKKPGETVKISCKASGYTFTDYSMHWVKQAPGKGLKWMGWINTETGEPGYADDFKGRFAFSLETSASTAYLQINNLKNEDTATYFCARYDGYAMDYWGQGTSVTVSS
VL: DIQMTQTTSSLSASLGDRVTISCRASQDISNYLNWYQQKPDGTVKLLIYYTSRLHSGVPSRFSGSGSGTDYSLTISNLELEDIATYFCQQGDMLPWTFGGGTKLEIK
notes: murine mAb; also called mAb SC16.4
B9: SC16.35 (antibody, V domains shown)
VH: DVQLQESGPGLVKPSQSLSLTCTVTGYSITSDYAWNWIRQFPGNKLEWMGYISYSGSTSYNPSLKSRISITRDTSKNQFFLQLNSVTTEDTATYYCARFYYGSSYAMDYWGQGTSVTVSS
VL: B8 VL with L80Q, D92N, M93T, W96Y
notes: murine mAb
B10: SC16.23 (antibody, V domains shown)
VH: QVTLKESGPGILQPSQTLSLTCSFSGFSLSTSNTGIGWIRQPSGTGLEWLAHIWWNDDKYYNPSLKSRLTISKETSNNQVFLKITNVDTADTASYFCVQIGRDYSNYAWYFDVWGAGTTVTVSS
VL: QIVLTQSPAIMSASPGEKVTLTCSASSSVSSRYLYWYQQKPGSSPKLWIYSTSNLASGVPARFSGSGSGTSYSLIISSMEAEDAASYFCHQWSNYPLTFGAGTKLELK
notes: murine mAb
B11: SC16.29 (antibody, V domains shown)
VH: QVQLQQSGAELARPGASVKLSCKASGYTFTDQYINWVKQRTGQGLEWIGEIYPGRGNTYYNEKFKGKATLTADKSSSTAYMQLSSLTSEDSAVYFCAREDGGYDDAWFAYWGQGTLVTVSA
VL: QIVLTQSPAIMSASPGEKVTITCSASSSVSYMHWFQQKPGTSPKLWIYTTSNLASGVPARFSGSGSGTSYSLTVSRMEAEDAATYYCQQRSLYPYTFGGGTKVEIK
notes: murine mAb
B12: SC16.47 (antibody, V domains shown)
VH: EVQLQQSGPELVKPGASVKISCKASGYSFSRFYMHWVKQSPENSLEWIGEINPSTGGTSYNQKFKGKATLTVDKSSSTAYMQLKSLTSEESAVYYCTRGYGSNCYFDVWGAGTTVTVST
VL: DVVLTQSPLSLPVNIGDQASISCKSTKSLLNSDGFTYLDWYLQRPGQSPQFLIYLVSNRFSGVPDRFSGSGSGTDFTLKISRVEAEDLGVYYCFQSNYLPLTFGAGTKLELR
notes: murine mAb
B13: SC16.42 (antibody, V domains shown)
VH: QIQLVQSGPELKKPGETVKISCKASGYTFTTAGMQWVQKMPGKGFKWIGWINTHSGEPKYADDFKGRFAFSLETSASTAYLQISNLKDEDTATFFCAPLWSDSSFAYWGQGTLVTVSA
VL: DVLMTQSPLSLSVSLGDQASISCRSSQNIVHSDRYTYLEWYLQKPGQSPKLLIYGVSNRFSGVPDRFSGSGSGTDFTLKISRVEAEDMGVYYCFQGTHVPYTFGGGTKLEIK
notes: murine mAb
B14: SC16.19 (antibody, V domains shown)
VH: EVQLQQSGAELVRPGASVKLSCTASGFNIKDSLLHWVKQRPEKGLEWIGWIDPEDGETKYAPNFQDKATITTDSSSNTAYLQLISLTSVDTAIYYCAYGNYVRHFDYWGQGTTLTVSS
VL: DIQMTQSPSSLSASLGGKVTFTCKASQDIHKYVAWYQHKPGKGPRLLIHYTSTLQPGISSRFSGSGSGRDYSFSISNLEPEDIATYYCLQYNNLYTFGGGTKLEIKR
notes: murine mAb
B15: SC16.36 (antibody, V domains shown)
VH: QVQLQQSGAELAKPGASVKMSCKASGYTFTTYWMHWVKQRPGQGLEWIGYINPSSGYTEYNQKFKDKATLTADKSSSTAYMQLSSLTSEDSSVYYCARKGSNRGFAYWGQGTLVTVS
VL: ETTVTQSPASLSVTTGEKVTIRCITTPDIDDDMNWYQQKPGEPPNLLISEGNSLRPGVPSRFSSSGYGTNFVFTIENTLSEDVADYYCLQSDNMPFTFGSGTKLEIK
notes: murine mAb
B16: SC16.20 (antibody, V domains shown)
VH: QVQLQQSGTELVRPGTSVRVSCKASGYAFGNHLIEWVKQRPGQGLEWIGVINPGTGGTHYNEKFKDKARLTADKSSNTAYMHLNSLTSDDSAVYFCARSPYDYHEGAMDYWGQGTSVTVSS
VL: EIQMTQSPSSMSASLGDRITITCQATQDIVKNLNWYQQKPGKPPSFLIYYATELAEGVPSRFSGSGSGSDYSLTIRNLESEDFADHYCLQFYEFPFTFGAGTKLELK
notes: murine mAb
B17: SC16.45 (antibody, V domains shown)
VH: QVQLQQSGADLVRPGTSVKVSCKASGYSFTNYLIEWVKQRPGQGLEWIGVINPGSGGTHYNEKFKDKAVLTADKSSTTAHMQLSSLTSDDSAVYFCARSPYDYNDGAMDYWGQGTSVTVSS
VL: B16 VL with S60A, R76S, H86Y, Y87H
notes: murine mAb
B18: SC16.38 (antibody, V domains shown)
VH: EVQLQQSGAELVKPGASVKLSCTVSGFNIKDTYIHWVKQRPEQGLEWIGRIDPANGNTKYDPKFQGKATITADTSSNTAYLQLSSLTSEDTAVYYCARPTGYFEYWGQGTTLTVSS
VL: QIVLTQSPAIMSASPGEKVTMTCSASSSINYMHWYQQKPGTSPKRWIYDTSKLASGVPARFSGSGSGTSYSLTISSMEAEDAATYYCHQRSTWTFGGGTKLEIK
notes: murine mAb
B19: SC16.34 (antibody, V domains shown)
VH: QIQLVQSGPELKRPGETVKISCKASGYTFTNYGMNWVKQAPGKGLKWMGWINTYTGDPTYADDFKGRFAFSLETSASTAYLQINNLKNEDTATYFCARIGGNSPSDYWGQGTSLTVSS
VL: SIVMTQTPKFLLVSAGDRVTITCKASQSVSNDVAWYQQKPGQSPKLLIYYASNRYSGVPDRFTGSGYGTDFTFTISTVQAEDLAVYFCQQDYSSPWTFGGGTKLEIK
notes: murine mAb
B20: SC16.3 (antibody, V domains shown)
VH: QVTLKESGPGILQPSQTLSLTCSFSGFSLSTSGMGVGWIRQPSGKGLEWLAHIWWDDVKRYNPALKSRLTISKDTSSSQVFLKIASVDTADTATYYCARIADYGGDYYAMDYWGQGTSVTVSS
VL: QIVLTQSPAIMSVSLGERVTMTCTASSSVSSSYLHWYQQKPGSSPKLWIYSTSNLASGVPARFSGSGSGTSYFFTISSMEAEDAATYYCHQYHRSPFTFGAGTKLKIR
notes: murine mAb; also called mAb SC16.3
B21: SC16.30 (antibody, V domains shown)
VH: QVTLKESGPGILQPSQTLSLTCSFSGFSLSTSGMGVGWIRQPSGKGLEWLAHIWWDDVKRYKPALKSRLTVSKDTSSNQVFLKIATVDAADTGTYYCARIVDGHPPFAYWGQGTLVTVSA
VL: B20 VL with A9T, V13A, S30T, F73S, F74L, Y92F, A101S, K106E, R108K
notes: murine mAb
B22: SC16.26 (antibody, V domains shown)
VH: QIQLVQSGPELKKPGETVKISCKASGYSFTDYSMHWVKQAPGKGLKWMGWINTETVEPTYADDFMGRFAFSLETSASTAFLQINNLENEDTATYFCARFGSYAMDYWGQGTS
VL: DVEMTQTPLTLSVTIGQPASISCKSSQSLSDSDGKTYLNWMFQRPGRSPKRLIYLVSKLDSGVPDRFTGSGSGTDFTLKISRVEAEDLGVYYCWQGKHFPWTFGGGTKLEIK
notes: murine mAb

Molecular target: T1, human DLL3 antigen
Assay: ELISA or flow cytometry screen

Binding result, binds:
B1
B2
B3
B4
B5
B6
B7
B8
B9
B10
B11
B12
B13
B14
B15
B16
B17
B18
B19
B20
B21
B22
